One may read the stoichiometry N as the number of molecules, sites or subunits per partner or assembly.

The test addresses Chikungunya virus (CHIKV) nonstructural protein 1 (nsP1) H37A mutant (chikungunya virus). Put plainly: cryo-EM structure; nsP1-mut incubated with SAH and m7GpppAmU at 4 °C overnight; graphene-covered grids; refinement with C12 symmetry, 2.41 Å.

For the substance “Chikungunya virus (CHIKV) nonstructural protein 1 (nsP1) H37A mutant (enzyme)”, the stoichiometry N was determined as 12.
